From WO1994029351A2

Columns and labels:
[1] = target: Purified human C1q (Sigma UK) (human) (UniProt P02745); assay: cell-based or functional assay
[2] = target: FcγRIII on human peripheral blood mononuclear effector cells (human) (UniProt P08637); assay: cell-based or functional assay
[3] = target: FcγRI on IFNγ stimulated U937 cells (UniProt P12314); assay: 50% inhibition of binding of FITC-labelled mouse lgG2a antibody to U937 cells, FACS
[4] = target: guinea pig complement (serum); assay: cell-based or functional assay

FcγRIII on human peripheral blood mononuclear effector cells (human), sequence (P08637 17-254): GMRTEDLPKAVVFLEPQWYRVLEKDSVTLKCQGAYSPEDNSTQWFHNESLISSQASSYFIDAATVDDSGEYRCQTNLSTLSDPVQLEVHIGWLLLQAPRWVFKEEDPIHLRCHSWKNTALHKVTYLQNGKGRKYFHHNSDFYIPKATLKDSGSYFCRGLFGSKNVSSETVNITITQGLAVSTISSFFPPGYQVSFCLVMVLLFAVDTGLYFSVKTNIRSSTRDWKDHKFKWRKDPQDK
Purified human C1q (Sigma UK) (human), sequence (P02745 23-245 limits assumed, chain 1 of 3): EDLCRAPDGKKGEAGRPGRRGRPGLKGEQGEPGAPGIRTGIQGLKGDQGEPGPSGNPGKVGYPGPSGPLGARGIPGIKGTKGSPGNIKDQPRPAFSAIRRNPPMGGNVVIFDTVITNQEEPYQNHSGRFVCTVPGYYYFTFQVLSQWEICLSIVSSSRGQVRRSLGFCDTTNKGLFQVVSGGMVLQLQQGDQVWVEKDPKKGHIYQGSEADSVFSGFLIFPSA
Purified human C1q (Sigma UK) (human), sequence (P02746 28-253 limits assumed, chain 2 of 3, further chain): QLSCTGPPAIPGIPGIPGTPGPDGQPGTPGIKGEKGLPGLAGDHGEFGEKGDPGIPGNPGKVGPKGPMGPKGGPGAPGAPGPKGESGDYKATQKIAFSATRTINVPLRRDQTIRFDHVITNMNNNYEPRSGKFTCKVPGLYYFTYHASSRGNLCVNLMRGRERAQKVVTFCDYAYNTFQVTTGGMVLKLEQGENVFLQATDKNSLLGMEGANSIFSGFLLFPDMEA
Purified human C1q (Sigma UK) (human), sequence (P02747 29-245 limits assumed, chain 3 of 3, further chain): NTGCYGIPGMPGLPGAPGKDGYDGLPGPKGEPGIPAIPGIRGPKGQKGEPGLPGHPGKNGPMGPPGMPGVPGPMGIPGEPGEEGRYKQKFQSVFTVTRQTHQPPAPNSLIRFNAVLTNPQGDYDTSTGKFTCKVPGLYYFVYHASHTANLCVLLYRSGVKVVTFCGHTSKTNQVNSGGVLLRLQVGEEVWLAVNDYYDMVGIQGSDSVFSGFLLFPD
FcγRI on IFNγ stimulated U937 cells, sequence (P12314 16-374 limits assumed): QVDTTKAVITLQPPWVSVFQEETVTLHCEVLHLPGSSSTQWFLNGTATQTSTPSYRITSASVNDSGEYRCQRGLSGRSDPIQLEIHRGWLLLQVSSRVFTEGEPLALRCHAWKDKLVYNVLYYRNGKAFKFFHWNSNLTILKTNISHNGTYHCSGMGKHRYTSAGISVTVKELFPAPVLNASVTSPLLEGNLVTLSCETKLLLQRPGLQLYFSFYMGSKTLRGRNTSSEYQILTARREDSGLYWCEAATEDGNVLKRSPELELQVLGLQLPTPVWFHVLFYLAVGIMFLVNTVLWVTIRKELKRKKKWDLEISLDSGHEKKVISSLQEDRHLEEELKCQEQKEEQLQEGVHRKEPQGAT

| IC50 [3] | Substance | mg/ml antibody necessary for half maximal cell killing by human complement [1] | percent plateau cell killing by human complement [1] | ng/ml antibody necessary for half maximal cell killing in ADCC [2] | maximum cell killing by human complement [1] | plateau level killing with guinea pig complement [4] | maximum killing in ADCC [2] | ng/ml antibody necessary for half maximal cell killing in ADCC (extrapolated value) [2] |
| --- | --- | --- | --- | --- | --- | --- | --- | --- |
|  | chimeric L243 G1[K320A] (from UniProt P01857 1-330; P01834 1-107) (antibody) | 0.6 mg/mL | 70% | 10 ng/mL |  |  |  |  |
| 130 µg/mL | chimeric L243 human lgG1 wild type (from UniProt P01857 1-330; P01834 1-107) (antibody) | 0.6 mg/mL | 65% |  | 64% | 80% |  |  |
|  | chimeric L243 human lgG2 (from UniProt P01859 1-326; P01834 1-107) (antibody) | > 20 mg/mL | 0% | > 100000 ng/mL |  |  |  |  |
|  | chimeric L243 G4[L235E] (from UniProt P01861 1-327; P01834 1-107) (antibody) | > 20 mg/mL | 0% | > 100000 ng/mL |  |  |  |  |
| 1200 µg/mL | chimeric L243 human lgG4 (from UniProt P01861 1-327; P01834 1-107) (antibody) | > 20 mg/mL | 0% |  |  |  | 20% | 10000 ng/mL |
|  | chimeric L243 G1[G237A] (from UniProt P01857 1-330; P01834 1-107) (antibody) | 2 mg/mL | 20% |  |  |  |  |  |
|  | chimeric L243 G1[L235A] (from UniProt P01857 1-330; P01834 1-107) (antibody) | > 20 mg/mL | 0% | 9 ng/mL |  | 49% |  |  |
|  | chimeric L243 G1[L235E] (from UniProt P01857 1-330; P01834 1-107) (antibody) | > 20 mg/mL | 0% |  |  | 40% |  |  |
